Laboratory results taken from paper PMC5993284, “Peptide inhibitors of the anaphase promoting-complex that cause sensitivity to microtubule poison” (PLoS ONE, 2018).
Entries after “also recorded” stand apart in the source; their conditions may differ. Ends that are not written are not given here. * marks the point of attachment. Biotin = O=C1N[C@H]2[C@H](CS[C@H]2CCCCC(=O)*)N1

B1: PQ65: 65 amino acid residue peptide called PQ65 (Cdc20 169–232) (peptide, UniProt P26309 169-232, looked up, fragment)
chain: PPNASPISHLRAQTKIVFKQNVAEACGLDMNKRILQYMPEPPKCSSLRQKSYIMKKRTHYSYQQ

How the values were obtained:
APC/C^Cdh1 = APC/C^Cdh1 enzyme assay (ubiquitination of 35S-Pds1); format: biochemical, Saccharomyces cerevisiae; conditions: 220 μM peptide; 35S-Pds1 substrate; time course 0-60 minutes; vs buffer; n = 3
Method: Full-length, radio-labeled protein purifications were preformed as previously described. ^35S-Pds1 was prepared in a 500 μL IVT/T (In Vitro Transcription/Translation) reaction (Promega, USA), which contained 400 μL rabbit reticulocyte lysate, 20 μL of L-^35S-methionine (PerkinElmer, USA), 10 μg of plasmid DNA, and the remaining volume as nuclease-free ddH2O as recommended by the manufacturer. The reaction mixture was incubated for 2 hours at room temperature and gently mixed every 30 minutes. The reaction was added to pre-equilibrated IgG Sepharose beads (GE Healthcare, USA) in Bio-spin disposable chromatography columns (Bio-Rad, USA) for binding for 2 hours at room temperature. To ensure efficient binding, the beads were re-suspended several times every 30 minutes. After binding, the beads were washed with 5 mL wash buffer, containing 200 mM 4-(2-hydroxyethyl)-1-piperazineethanesulfonic acid (HEPES) at pH 8.0, 150 mM NaCl, 10% (v/v) glycerol, and 1 mM dithiothreitol (DTT). The ^35S-Pds1 was cleaved from the beads using TEV (Tobacco Etch Virus) protease in 1x TEV buffer (Invitrogen, USA) for 2 hours at room temperature, and the mixture was re-suspended several times every 30 minutes to promote efficient cleavage. The elution was collected and concentrated by employing an Amicon Ultra filter column (Millipore, Ireland). The concentrated ^35S-Pds1 was collected in a new tube, and stored at -20 °C.
The production of Cdc20 or Cdh1 was prepared by IVT/T reactions, where 16 μL of rabbit reticulocyte lysate, 20 μM L-methionine, 0.4 μg of plasmid DNA, and a volume of nuclease-free ddH2O for a total volume of 20 μL. This freshly synthesized Cdc20 or Cdh1 protein was used directly in all APC/C assays after a 1-hour synthesis reaction at room temperature. The APC/C was purified for enzyme assays from 1 mL of TAP-tagged Cdc16 yeast extract (SCSY51) where extract was mixed with 50 μL 50:50 slurry magnetic beads (Invitrogen, Norway) for 2 hours at 4 °C. After incubation, the beads were washed with 3 mL APC/C wash buffer (200 mM of HEPES, 150 mM of NaCl and 10% (v/v) of glycerol). APC/C bound to IgG magnetic beads was used directly in the enzyme assays.
APC/C assays were performed by adding the reaction contents in following order: 4.3 μL of QAH buffer, 20 μL of rabbit reticulocyte lysate containing Cdc20 or Cdh1 with or without an additional volume of recombinant checkpoint protein(s) or inhibitor peptides, 2.4 μL ubiquitin aldehyde (Boston Biochem, USA), APC/C, 16 μL pre-charged E1/E2/ATP/ubiquitin mix, and 13.3 μL of ^35S-Pds1 with QAH buffer (20 mM HEPES at pH 8.0, 100 mM NaCl, and 1 mM MgCl2). […]

APC/C^Cdc20 = biological target: T1, APC/C^Cdc20 (Saccharomyces cerevisiae, UniProt P16522+P53886); assay: biochemical; format: biochemical; conditions: for inhibition of APC/C^Cdc20 activity (in words): 220 μM peptide, time course 0-60 minutes, vs buffer only, n = 3
T1 construct: constructed within full-length Cdc20 by site-directed mutagenesis for analysis in vitro in the APC/C^Cdc20 assay; The APC/C was purified for enzyme assays from 1 mL of TAP-tagged Cdc16 yeast extract (SCSY51); made in house; host or cells: Cdc20: in vitro transcription/translation in rabbit reticulocyte lysate, used unpurified; APC/C: S. cerevisiae strain SCSY51 (Cdc16-TAP) extract, captured on IgG magnetic beads
Method in brief: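 Bead-bound TAP-Cdc16 yeast APC/C was mixed with IVT-made Cdc20 or Cdh1, pre-incubated 1 h at rt with checkpoint proteins or inhibitor peptides, plus pre-charged E1/E2/ATP/ubiquitin and ^35S-Pds1 in 20 mM HEPES pH 8.0, 100 mM NaCl, 1 mM MgCl2. Time points were stopped in SDS buffer and resolved by SDS-PAGE.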

Row | Molecule | inhibition of APC/C^Cdh1 activity (in words) (APC/C^Cdh1) | inhibition of APC/C^Cdc20 activity (in words) (APC/C^Cdc20; 35S-Pds1 substrate) | overall APC/C inhibition (in words) (APC/C^Cdc20; discussion/conclusion statement) | IC50 (APC/C^Cdc20; peptide titration dilution series, 35S-Pds1 substrate, estimated/approximate, read-out: IC50) [µM]
1 | DQ36-mut1: DQ36-mut1 where all 5 RILQY residues were changed to alanine AAAAA (Biotin-DMNKAAAAAMPEPPKCSSLRQKSYIMKKRTHYSYQQ) | displayed a similar loss in the ability to inhibit this APC/C^Cdh1 enzyme activity relative to wild type DQ36 | The RILQY residues of the yeast KILR-motif were observed to be essential for full inhibition |  | 
2 | B1 | observed to inhibit APC/C^Cdh1; also recorded: a significant level of APC/C^Cdh1 inhibition was observed | sufficient to inhibit APC/C^Cdc20 activity; also recorded: A significant level of APC/C^Cdc20 inhibition was observed | displayed the highest level of APC/C inhibition in vitro | < 50
